The results in this text go back to FireProtDB (doi:10.1021/bi982158q).

The labels stand for the following.
B1: Cytochrome b5, P00171 (parent)
chain: MAEESSKAVKYYTLEEIQKHNNSKSTWLILHYKVYDLTKFLEEHPGGEEVLREQAGGDATENFEDVGHSTDARELSKTFIIGELHPDDRSKITKPSESIITTIDSNPSWWTNWLIPAISALFVALIYHLYTSEN

Variants of B1 are the subject of this data set. The following applies: Bos taurus, pH 7, K2HPO4 5 mM, transition: 2, reversible: Yes, structure 1CYO, whole UniProt chain shown; for denaturant m value / denaturant midpoint (higher = more stable) / unfolding free energy: 25 °C, Urea; for Tm / change of melting temperature, mutant - wild type (higher = more stable): Thermal.

As a reminder, the Tm is the temperature at the midpoint of the melting transition. In the case of MAEESSKAVKYYTLEEIQKHNNCKSTWLILHYKVYDLTKFLEEHPGGEEVLCEQAGGDATENFEDVGHSTDARELSKTFIIGELHPDDRSKITKPSESIITTIDSNPSWWTNWLIPAISALFVALIYHLYTSEN [S23C R52C], under “Absorbance”, the denaturant m value was 0.81 kcal/mol/M, the “denaturant midpoint (higher = more stable)” value (“denaturant midpoint” for short) is 6.4 M, the unfolding free energy came out at 5.2 kcal/mol and the melting temperature (Tm) is 76 °C. For the same variant, the “change of melting temperature, mutant - wild type (higher = more stable)” value (from here on “change of melting temperature, mutant”) (Absorbance) is 0.8 °C. Besides, where the note is “Fluorescence”, the denaturant m value was 0.93 kcal/mol/M, the “denaturant midpoint” value is 3.7 M, the unfolding free energy was 3.4 kcal/mol and the Tm came out at 60.8 °C. In addition, the “change of melting temperature, mutant” value (Fluorescence) was found to be 10.7 °C.
As to MAEESSKAVKYYTLEEIQKHNNCKSTWLILHYKVYDLTKFLEEHPGGEEVLREQAGGDATENFEDVGHSTDARELSKTFIIGELHPDDRSKITKPSESIITTIDSNPSWWTNWLIPAISALFVALIYHLYTSEN [S23C], under “Absorbance”, the denaturant m value turned out to be 0.97 kcal/mol/M, the “denaturant midpoint” value turned out to be 6.5 M, the unfolding free energy came to 6.9 kcal/mol and the Tm worked out at 75.5 °C. The “change of melting temperature, mutant” value (Absorbance) is 0.3 °C. In addition, under “Fluorescence”, the denaturant m value was determined as 0.56 kcal/mol/M, the “denaturant midpoint” value is 2.5 M, the unfolding free energy was 1.4 kcal/mol and the Tm was found to be 52.7 °C. Besides, under “Fluorescence”, the “change of melting temperature, mutant” value is 2.6 °C.
